In article PMC8834437, “Physical Interaction between Embryonic Stem Cell-Expressed Ras (ERas) and Arginase-1 in Quiescent Hepatic Stellate Cells” (Cells, 2022) one finds binding result and Kd data, which are given here for four molecules.

Test [1] has as its target T1, purified arginase 1 (ARG1; aa 1-322) (UniProt P05089 1-322).
T1 construct: Arginase 1 (ARG1), P05089, aa 1-322; Named MBP-ARG1 only for the SPR; also called MBP-ARG1; purified ARG1
T1 sequence (looked up): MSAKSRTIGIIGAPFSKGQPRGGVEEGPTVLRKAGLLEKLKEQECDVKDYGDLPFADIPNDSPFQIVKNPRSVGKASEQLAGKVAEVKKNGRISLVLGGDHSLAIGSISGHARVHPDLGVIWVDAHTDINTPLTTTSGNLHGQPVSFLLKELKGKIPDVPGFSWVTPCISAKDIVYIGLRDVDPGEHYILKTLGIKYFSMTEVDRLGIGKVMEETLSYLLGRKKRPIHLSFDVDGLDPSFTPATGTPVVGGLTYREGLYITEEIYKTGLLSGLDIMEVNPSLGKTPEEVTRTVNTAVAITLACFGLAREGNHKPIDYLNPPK
Put plainly: pull-down; GST-fusion proteins immobilized on GSH agarose beads, mixed with purified ARG1, 1 h at 4 °C. To be noted: both partners purified.

Test [2] concerns the target T1, purified arginase 1 (ARG1; aa 1-322). The test is described as follows: SPR; Biacore X100, CM5 chip, GST-hsNex (10 µM) captured by immobilized anti-GST antibody, MBP-ARG1 0.5-20 µM injected, 25 °C, 10 mM HEPES pH 7.4, 150 mM NaCl, 0.05% P20, Langmuir 1:1 model. The conditions noted are these: both partners purified. In general terms: In SPR one partner is held on a chip, and binding of the other changes the refractive index at the surface.

B1: GST-rnNex (rat ERas N-terminal extension, aa 1-38) (domain or fragment, UniProt D3ZTE4 1-38, looked up)
chain: MALPTKSSILDLSPGTQCSRSPEESHEAWAQCKDAGRQ
notes: Embryonic stem cell-expressed Ras (ERas), rat, D3ZTE4, N-terminal extension (Nex) aa 1-38; also called ERas rnNex; GST-Nex of rat ERas
Turning to B1, in test [1], the binding result is given as “binds”.

B2: GST-hsNex (human ERas N-terminal extension, aa 1-38) (domain or fragment, UniProt Q7Z444 1-38, looked up)
chain: MELPTKPGTFDLGLATWSPSFQGETHRAQARRRDVGRQ
notes: Embryonic stem cell-expressed Ras (ERas), human, Q7Z444, N-terminal extension (Nex) aa 1-38; Cloned into pMal-c5X-His or pGEX-4T1-N-TEV; used as GST fusion; also called ERas hsNex; GST-Nex of human ERas
As a reminder, the Kd is a measure of binding affinity in units of concentration. Molecule B2 registered a dissociation constant (Kd) in test [2] of 2100 nM.

B3: GST-hsFL (human ERas full length, aa 1-233) (natural protein, UniProt Q7Z444 1-233, looked up)
chain: MELPTKPGTFDLGLATWSPSFQGETHRAQARRRDVGRQLPEYKAVVVGASGVGKSALTIQLNHQCFVEDHDPTIQDSYWKELTLDSGDCILNVLDTAGQAIHRALRDQCLAVCDGVLGVFALDDPSSLIQLQQIWATWGPHPAQPLVLVGNKCDLVTTAGDAHAAAAALAHSWGAHFVETSAKTRQGVEEAFSLLVHEIQRVQEAMAKEPMARSCREKTRHQKATCHCGCSVA
notes: Embryonic stem cell-expressed Ras (ERas), human, Q7Z444, FL aa 1-233; also called ERas hsFL; GST-FL of human ERas
For the molecule B3, the binding result in test [1] is reported as “binds”.

B4: GST-rnFL (rat ERas full length, aa 1-227) (natural protein, UniProt D3ZTE4 1-227, looked up)
chain: MALPTKSSILDLSPGTQCSRSPEESHEAWAQCKDAGRQLPEYKAVVVGASGVGKSALTIQMTHHCFVKDHDPTIQDSYWKEVALDNGGYILNVLDTAGQDSHRALRDQCLAAGDGVLGVFALDDPSSLDQLQQICSTWNPHHKQPLVLVGNKSDLVSSAGDAHTAAAVLAHKLGAPLVKTSAKTRQGVEEAFALLVHEIQRAQEAVAESSKKTRHHKAVCSCGCSVA
notes: Embryonic stem cell-expressed Ras (ERas), rat, D3ZTE4, FL aa 1-227; also called GST-FL of rat ERas
As to B4, in test [1], the binding result is listed as “binds”.
